Measured values published in article PMC4947182.

Assays:
[1] = soluble expression of ectodomain in Sf9 cells; conditions: glycan lost; control: WT JUNO ectodomain
[2] = mRNA complementation of Juno KO eggs, fertilization rate; conditions: glycan lost; control: Juno KO eggs injected with WT mJuno mRNA

Protein | expression_or_secretion [1] | other: sperm-egg fusion, other: percent eggs fertilized [2]
JUNO (folate receptor 4, IZUMO1R): N185D (protein) parent chain: MAQWWQILLGLWAVLPTLAGDKLLSVCMNSKRHKQEPGPEDELYQECRPWEDNACCTRSTSWEAHLEEPLLFNFSMMHCGLLTPACRKHFIQAICFHECSPNLGPWIQPVVPNGQEEQRVWGVPLCQEDCEDWWRACHSSLTCKSNWLHGWDWSEEKKHCPAHEPCLPFSYHFPTPDDLCEKIWNNTFKASPERRNSGRCLQKWFEPTLSNPNVEVALHFAGSALAPQLSYTLPAFSLCLLFHP | abolishes | –
JUNO (folate receptor 4, IZUMO1R): N73D (protein) parent chain: MAQWWQILLGLWAVLPTLAGDKLLSVCMNSKRHKQEPGPEDELYQECRPWEDNACCTRSTSWEAHLEEPLLFNFSMMHCGLLTPACRKHFIQAICFHECSPNLGPWIQPVVPNGQEEQRVWGVPLCQEDCEDWWRACHSSLTCKSNWLHGWDWSEEKKHCPAHEPCLPFSYHFPTPDDLCEKIWNNTFKASPERRNSGRCLQKWFEPTLSNPNVEVALHFAGSALAPQLSYTLPAFSLCLLFHP | no change | no change, 94.7 vs 93.5
